The values that follow come from the DeepSol protein solubility set.

The series can be described thus: soluble on expression in E. coli; label from the status in PepcDB or PDB records.
Consider “MAHHHHHHMAAVDMQVRAGELPEEPKKDLKKEPSGASKSEEEMQSGIKTYYEMKIEEYESIINKKLQNKKRLEAQRNELNTRVRELCDEIQYLLEAASYVGEIVKPMGKNKVLVKINPEGKYVVDISHSVNIAQCTPNTRVALYNDSYKLHKILPSKVDPLVSLMKVEKVPDSTYEMVGGLDQQVKEVKEVIELPVKHPEIFESLGISQPKGVLLYGPPGTGKTLLARAVAHHTDCTFIRVSGSELVQKYIGEGSRMVRELFVMAREHAPSIIFMDEIDSIGSQRIEGEHGDSEVQRTMMELLNQLDGFESTQNIKVIMCTNRIDILDEALLRPGRIDRKIEFPNPNVEARMEILKIHSRKMNLMRGIDMMKIATDMNNCSGAEVKAVCTEAGMFALRERRVHVTQEDFEMAVAKVMKQDAEKNFTLRKLWK”, for which the “soluble on expression in E. coli” value is “soluble”.
For the sequence “MHHHHHHSSGVDLGTENLYFQSMPRIDADLKLDFKDVLLRPKRSSLKSRAEVDLERTFTFRNSKQTYSGIPIIVANMDTVGTFEMAAVMSQHSMFTAIHKHYSLDDWKLFATNHPECLQNVAVSSGSGQNDLEKMTSILEAVPQVKFICLDVANGYSEHFVEFVKLVRAKFPEHTIMAGNVVTGEMVEELILSGADIIKVGVGPGSVCTTRTKTGVGYPQLSAVIECADSAHGLKGHIISDGGCTCPGDVAKAFGAGADFVMLGGMFSGHTECAGEVIERNGRKLKLFYGMSSDTAMNKHAGGVAEYRASEGKTVEVPYKGDVENTILDILGGLRSTCTYVGAAKLKELSRRATFIRVTQQHNTVFS”, the “soluble on expression in E. coli” value is recorded as “soluble”.
In the case of “MASQADAQELAALRALSASIGLNPHMTQAAGGNTSLKAGDTLWIKASGTWLKDALSDDIMVPVAMAPLLEAVEEGDPAADKPQAFAINELNPRGLRPSIETTVHALMPQRVVLHVHCVDTISLAVQADGEAEVARRLGGIEWAYVPYCRPGLPLARGISEKLRPNVDVLILGNHGLVVAADTVAEAQRLLHRVRSLLARPARATAAPDIAALTALAADSAYRLPADLEAHAVALDPQSRRMAEAGSLYPDHVIFLGQGSVVAKPGENAAGVATRLGAAPVAILFPGAGVLVRGDASAGADAMQRCLADVTARVDVAARLNYLTAAENDELVNWDAEQYRQKLNATGGLEHHHHHH”, the “soluble on expression in E. coli” value was “not soluble”.
Turning to “VKKIKDIGEVAGGSTPSTKIKEYWGGDIPWITPKDLANYEYIYISRGERNITEKAVKECSLRIFPKGTILLTSRAPIGYVAIAKNPLTTNQGFRNIIPKDGVVSEYLYYLFKTKTMSEYLKDISGGSTFPELKGSTLKEVEIPYPSPEEQQKIATVLSYFDD”, the “soluble on expression in E. coli” value is “not soluble”.
“MSLNGITKYVEKVKGLLFSSVQSQKRIEFSNNDEKVMLSNVPLIQQLPELDRGCEVTSLAMMLQYAGVSVDKMKLANEIKKVNFMEDGVRGNPNEGFVGNIYTFSESGYGVYHGPLFQLAKKYLPNKAVDLTGKSIEEIYKSVKAGHPVVMITNATYAPLDEDEFTTWETNSGDVSITYNEHCVVLVGYDKESVYIRDPLDDSLDVKVPREKFEQAWVQMGSQAISYVNKSKEGHHHHHH”: the “soluble on expression in E. coli” value is “soluble”.
Take “MSLNIAVMEKGAAQPGDRLLSDVSLPALVIHNQALEHNIRWMQQFVTDSGAELAPHGKTSMVPALFRRQLDAGAWGMTLATAIQTQTAYAHGVKRVLMANQLVGAPNMAVIASLLADPMFEFHCMVDHPDNVAALGEFFAAHGLRLNVMIEYGVPGGRCGCRSEAEVLALADAVQAQPALALSGIEGYEGVIHGDQAIAGIKAFAASLVSLAVNLQDKGAFALDRPIVTASGSAWYDLIAEAFDAQAVRDRFLSVLRPGSYVVHDHGIYKDAQCCVLDRRAELSEALRPALEVWAHVQSMPEPGFAVIAMGKRDVAYDAGLPNPLLRYTPGVSSAPGDDVSACKVTAVMDQHAFMTVAADCELKVGDIISFGTSHPCLTFDKWRSGCLVDDDLRVIEPFHTCFEGHHHHHH”: the “soluble on expression in E. coli” value was “not soluble”.
In the case of “MDMMMDKQEIKREYIEQEGHFETKSRRRELHIEILSEQTKSDIRNSKLVVMN”, the “soluble on expression in E. coli” value is listed as “soluble”.
Regarding “MAHHHHHHMNEEILKNIKVNNNFLEFEEIIKDINTPFNFIDLVEIPCVPVVDLYGLSLLNNEAYLEYKSGLREDKLNADDEIKLTLFFAVKLYKKNIIRIKFPSYYDIIETLKFDPVSVTIGLFNQFYFETAYELCNLLPINEWPSTNFYDILRKAEKTRIHFLINNKTKLNSYFLEGLTNKEKKIYKYFLEGTSKEREKLNKETTLFHFYEKEKC”, the “soluble on expression in E. coli” value is “not soluble”.
As to “MNKTELIKNVAQNAEISQKEATVVVQTVVESITNTLAAGEKVQLIGFGTFEVRERAARTGRNPQTGEEMQIAASKVPAFKAGKELKEAVK”, the “soluble on expression in E. coli” value was “soluble”.
With “MGSDKIHHHHHHMEFYDIVIVGGGPAGLAAAASAKKNKIDKILILERDCELGGILNQCIHNGFGLHTFKEELTGPEYAGRFIKEVKELGIEYRLNTMVMDISTGDESENGSNDKIVTAMNRTDGLFHIAAKTVILAMGCRERARGALNIPGYRPAGIFSAGTAQRLVNIEGYMPGRKVVILGSGDIGLIMARRMTLEGAKVQVVAELMPYSGGLKRNIVQCLDDFNIPLKLSHTVVDIKGRERVEGITLAQVDEHNKPIEGTEEFYECDTLLLSCGLIPENEISKTAGVELNPVTSGPVVNESLETNVPGVFACGNVLHVHDLVDYVSEEATAAGRHAAEYVKNGGDKSCDGKEISITATGGVRYTVPSTINTAQMDDTVTVRFRVGAVYKNCYIAVYLDDKQLQHRKRPVMAPGEMEQVVLQKKQLIETDNPCTITIKIEEA”, the “soluble on expression in E. coli” value is “not soluble”.
Under “MAFICELDEQWSYVGSKARQHWLGYAYNTKTGGVLAYTFGPRTDQTCRELLALLTPFNIGMLTSDDWGSYGREVPKNKHLTGKIFTQRIERNNLTLRTRIKRLGRKTICFSRSVEIHEKVIGAFIEKHMFYLEHHHHHH” stands “soluble”.
Regarding “MEFYNSTNEIPEEMLKGIDLTYPQLTYLPETGILYDNTYNEKTVPIISGGGSGHEPAHVGYVGSGMLAAAVTGPLFIPPKSKNILKAIRQVNSGKGVFVIIKNFEADLKEFNEAIKEARTEGIDVRYIVSHDDISVNAYNFHKRHRGVAGTILLHKILGAFAKEGGSIDEIEQLALSLSPEIYTLGVALAPVHFPHQKTSFVLAEDEVSFGIGIHGEPGYRVEKFEGSERIAIELVNKLKAEINWQKKANKNYILLVNGLGSTTLMELYSFQYDVMRLLELEGLSVKFCKVGNLMTSCDMSGISLTLCSVKDPKWLDYLNVPTGAFAWLEHHHHHH”, the “soluble on expression in E. coli” value is “soluble”.
Take “MSVDMNSQGSDSNEEDYDPNCEEEEEEEEDDPGDIEDYYVGVASDVEQQGADAFDPEEYQFTCLTYKESEGALNEHMTSLASVLKVSHSVAKLILVNFHWQVSEILDRYKSNSAQLLVEARVQPNPSKHVPTSHPPHHCAVCMQFVRKENLLSLACQHQFCRSCWEQHCSVLVKDGVGVGVSCMAQDCPLRTPEDFVFPLLPNEELREKYRRYLFRDYVESHYQLQLCPGADCPMVIRVQEPRARRVQCNRCNEVFCFKCRQMYHAPTDCATIRKWLTKCADDSETANYISAHTKDCPKCNICIEKNGGCNHMQCSKCKHDFCWMCLGDWKTHGSEYYECSRYKENPDIVNQSQQAQAREALKKYLFYFERWENHNKSLQLEAQTYQRIHEKIQERVMNNLGTWIDWQYLQNAAKLLAKCRYTLQYTYPYAYYMESGPRKKLFEYQQAQLEAEIENLSWKVERADSYDRGDLENQMHIAEQRRRTLLKDFHDT”: the “soluble on expression in E. coli” value is reported as “soluble”.
“MILDTDYITENGKPVIRVFKKENGEFKIEYDRTFEPYFYALLKDDSAIEDVKKVTAKRHGTVVKVKRAEKVQKKFLGRPIEVWKLYFNHPQDVPAIRDRIRAHPAVVDIYEYDIPFAKRYLIDKGLIPMEGDEELTMLAFAIATLYHEGEEFGTGPILMISYADGSEARVITWKKIDLPYVDVVSTEKEMIKRFLRVVREKDPDVLITYNGDNFDFAYLKKRCEELGIKFTLGRDGSEPKIQRMGDRFAVEVKGRIHFDLYPVIRRTINLPTYTLEAVYEAVFGKPKEKVYAEEIAQAWESGEGLERVARYSMEDAKVTYELGREFFPMEAQLSRLIGQSLWDVSRSSTGNLVEWFLLRKAYKRNELAPNKPDERELARRRGGYAGGYVKEPERGLWDNIVYLDFRSLYPSIIITHNVSPDTLNREGCKEYDVAPEVGHKFCKDFPGFIPSLLGDLLEERQKIKRKMKATVDPLEKKLLDYRQRAIKILANSFYGYYGYAKARWYCKECAESVTAWGREYIEMVIRELEEKFGFKVLYADTDGLHATIPGADAETVKKKAKEFLKYINPKLPGLLELEYEGFYVRGFFVTKKKYAVIDEEGKITTRGLEIVRRDWSEIAKETQARVLEAILKHGDVEEAVRIVKEVTEKLSKYEVPPEKLVIHEQITRDLRDYKATGPHVAVAKRLAARGVKIRPGTVISYIVLKGSGRIGDRAIPADEFDPTKHRYDAEYYIENQVLPAVERILKAFGYRKEDLRYQKTKQVGLGAWLKVKGKK”: the “soluble on expression in E. coli” value is “soluble”.
Next, “VVRVGRRSATFYPPEGAAALIGDFTDWERNPIPLEGPLTLEFPEGAYVEYAFLDREGRPFPDPDNPEKAENPWWSYPRAIKLPGFRYEAPPAPKEEPKVHRHRLGERRFYVAETGPSPKATVVAQDGVAFYRTAGLHKVARALFEAGEIPPVRLVFVEPIDRNTEYRFNEAYEAEFHRVLEEVEGAYGPLNELVLVGASLGGLFSLWQAWRHPERFPKVLALSPALKAHPGGKDAYRDEEWLLARYAEARRLPRVYVEVGLLEWLLGPNRRLAALFADKKVPHAYRERPSGHNWVTWKQALAPGLRYLLGPQ”: “soluble”; “MIAGYIMAAENQTLNQWTINQLGITRGDSILEVGFGPGYCMQQMLKREKDVHLHGIDVSEAMLKLAARRVKPKGVRLIQGSIETFPLPASFYDKVISVNNYTIWNDQTKGIKQIYRALKPGGKAAITMQPREADASPEKTKSFGRQMIADFKAAGFEDIDIQFKNIKPELSVCATAKKPATLEHHHHHH”: “not soluble”.
Turning to “MGSDKIHHHHHHMTINQEHLTDCKLCKAHSWELVATLISGIWDKRHDELNREELRFPIGQCTKCHHVQVAIPYTQSIFDSLYFSNQAEPDMWCETPNGQKSPYEEMLEFIAPYIQDGAHIVDFGAGAGTTLKHIENTHKERQLTLASVDFHNHIQSETIEYLSADLNKLEALQAEFVTQPISLAISTHVLEHLIDPIHFLTQIRSMLSDDGHIFIEVPDCSPDAFIEHLAFTNLVHGQHIHYYSKDSLAQIARLAGLKIDALQQLTTGDIPRLLILLSKTTQESSTTVLPVTSGADVAVVKRFNDYHAFQDSLFKQIQQALMLNDTIGIWGIGGDFYQLTQSYPELIDLIQANSIILYDYELAGHTYVGSSIRCSSAIASTRYPVFMLPLYAPTREKMHQVSQSWSAQVIDPF”, the “soluble on expression in E. coli” value is on record as “not soluble”.
In the case of “MGSDKIHHHHHHMPDLFVTNFNRNFTGVSATAANVIRQQVATHDLALVGHALPGCPAPISARAARALSRTPPPGKPFAIWHVRRNPEMQTAIWARDVLRLPIRIVFTSAAIRRHSAFPRWLISRMDAVVATSDAAASFVPHVRAVVPHGVDTDRFTPAPDRPAAWAAQGYGGSFGIATIGRVRPEKGTDLFVEAMLRLLPDMPGAVALVVGRATKEHQKFALTLKDKVQRAGMIDRIRFIDEVPPDRLPDLMRALSLVVQLPRYEGYGMVPLEAMASGVPFVGSDTGFFREFSAQGRAGRVVPLENAGLGAEAARALLADEDVHGAAALAAREIAVESFSAAREAAGIEAVYQQLWSQAAPGA”, the “soluble on expression in E. coli” value is reported as “not soluble”.
Consider “MGSDKIHHHHHHMVDADQLRQWGRKVIDTERNALDNLYQYVDSSEFAKACQLILACTGKVIVMGMGKSGHIGNKISATLASTGTPAFFVHPGEASHGDLGVLSENDIVLAISNSGEASEILTLMPVIKRMGLPVIAVTGKPESNMAKHSVVHLCIEVPEEACPLGLAPTSSTTATLVMGDALAVALLQARGFTKDDFALSHPGGSLGRKLLLKVSDVMHKGDDLPLVAEDICITEALYEISKKGLGMTGVVNSQGMLVGIFTDGDLRRVIDAEINLRKTSISEVMTHGCVTVSEGILAAQALKVMDEKEINGLIVTDEQQKPIGALNMLDMVKAGVI”, for which the “soluble on expression in E. coli” value is “not soluble”.
